# Measured values: US20120123099A1
# Assays:
# [1] = molecular target: anti-nAChR autoantibody presented on the cell surface of hybridoma Mab35 (ATCC TIB-175); experiment: cell-based or functional assay
# [2] = molecular target: anti-nAChR autoantibody mAb35 (an autoantibody to rat nAChR), purified from supernatant of hybridoma Mab35 (ATCC TIB-175); experiment: ELISA; mAb35 immobilised at 625 ng/mL, α1-Fc added, detected with HRP-labeled anti-human Fc antibody
# [3] = molecular target: anti-nAChR autoantibody mAb35 (an autoantibody to rat nAChR), purified from supernatant of hybridoma Mab35 (ATCC TIB-175); experiment: ELISA; mAb35 immobilised at 9.8 ng/mL, α1-Fc added, detected with HRP-labeled anti-human Fc antibody
# [4] = molecular target: anti-nAChR autoantibody mAb35 (an autoantibody to rat nAChR), purified from supernatant of hybridoma Mab35 (ATCC TIB-175); experiment: ELISA; mAb35 immobilised at 2500 ng/mL, α1-Fc added, detected with HRP-labeled anti-human Fc antibody
# [5] = molecular target: anti-nAChR autoantibody mAb35 (an autoantibody to rat nAChR), purified from supernatant of hybridoma Mab35 (ATCC TIB-175); experiment: ELISA; mAb35 immobilised at 39.1 ng/mL, α1-Fc added, detected with HRP-labeled anti-human Fc antibody
# [6] = molecular target: anti-nAChR autoantibody mAb35 (an autoantibody to rat nAChR), purified from supernatant of hybridoma Mab35 (ATCC TIB-175); experiment: ELISA; mAb35 immobilised at 10000 ng/mL, α1-Fc added, detected with HRP-labeled anti-human Fc antibody
# [7] = molecular target: anti-nAChR autoantibody mAb35 (an autoantibody to rat nAChR), purified from supernatant of hybridoma Mab35 (ATCC TIB-175); experiment: ELISA; mAb35 immobilised at 156.3 ng/mL, α1-Fc added, detected with HRP-labeled anti-human Fc antibody
substance,measurement,setting,value
"fusion protein α1-Fc, consisting of an N-terminal extracellular region of isoform 1 of human nAChRα1 subunit and a human antibody heavy chain Fc region (Fc fusion)",cellular cytotoxicity (%) (ADCC activity) by NK 92 effector cells on Calcein-AM-loaded hybridoma Mab35,[1],50%
same,Absorbance A450 nm,[2],0.871 A450 nm
same,Absorbance A450 nm,[3],0.505 A450 nm
same,Absorbance A450 nm,[4],1.12 A450 nm
same,Absorbance A450 nm,[5],0.557 A450 nm
same,Absorbance A450 nm,[6],1.23 A450 nm
same,Absorbance A450 nm,[7],0.659 A450 nm
